Biological target: T1, aryl hydrocarbon receptor (human (endogenous in HL-60), UniProt P35869 11-848)
T1 sequence (looked up): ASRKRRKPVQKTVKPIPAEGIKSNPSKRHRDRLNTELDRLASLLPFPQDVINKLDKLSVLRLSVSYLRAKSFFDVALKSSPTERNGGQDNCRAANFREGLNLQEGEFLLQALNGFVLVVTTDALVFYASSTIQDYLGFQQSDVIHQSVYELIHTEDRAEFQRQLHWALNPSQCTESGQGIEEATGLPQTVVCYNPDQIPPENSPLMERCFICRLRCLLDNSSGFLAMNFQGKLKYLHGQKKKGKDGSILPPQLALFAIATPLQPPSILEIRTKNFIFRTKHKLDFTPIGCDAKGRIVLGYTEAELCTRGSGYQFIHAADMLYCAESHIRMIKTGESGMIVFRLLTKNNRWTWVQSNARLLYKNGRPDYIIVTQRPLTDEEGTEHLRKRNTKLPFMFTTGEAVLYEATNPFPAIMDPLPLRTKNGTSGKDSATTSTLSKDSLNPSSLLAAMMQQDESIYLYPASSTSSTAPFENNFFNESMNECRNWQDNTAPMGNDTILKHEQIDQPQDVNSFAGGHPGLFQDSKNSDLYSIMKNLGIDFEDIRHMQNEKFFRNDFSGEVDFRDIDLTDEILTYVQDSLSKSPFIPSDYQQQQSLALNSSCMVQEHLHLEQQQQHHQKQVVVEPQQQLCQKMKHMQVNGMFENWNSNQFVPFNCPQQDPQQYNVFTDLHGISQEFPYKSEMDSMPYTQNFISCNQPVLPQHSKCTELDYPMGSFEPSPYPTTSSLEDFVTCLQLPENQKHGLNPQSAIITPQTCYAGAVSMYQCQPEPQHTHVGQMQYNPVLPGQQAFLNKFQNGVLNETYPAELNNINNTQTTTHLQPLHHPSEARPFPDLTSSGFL
Assay: FRET or BRET

- fold weaker FRET signal than the RARα/RXRα interaction: ~4 fold
B1: Cbl-b (natural protein, human (endogenous in HL-60), UniProt Q13191 1-982, looked up)
chain: MANSMNGRNPGGRGGNPRKGRILGIIDAIQDAVGPPKQAAADRRTVEKTWKLMDKVVRLCQNPKLQLKNSPPYILDILPDTYQHLRLILSKYDDNQKLAQLSENEYFKIYIDSLMKKSKRAIRLFKEGKERMYEEQSQDRRNLTKLSLIFSHMLAEIKAIFPNGQFQGDNFRITKADAAEFWRKFFGDKTIVPWKVFRQCLHEVHQISSGLEAMALKSTIDLTCNDYISVFEFDIFTRLFQPWGSILRNWNFLAVTHPGYMAFLTYDEVKARLQKYSTKPGSYIFRLSCTRLGQWAIGYVTGDGNILQTIPHNKPLFQALIDGSREGFYLYPDGRSYNPDLTGLCEPTPHDHIKVTQEQYELYCEMGSTFQLCKICAENDKDVKIEPCGHLMCTSCLTAWQESDGQGCPFCRCEIKGTEPIIVDPFDPRDEGSRCCSIIDPFGMPMLDLDDDDDREESLMMNRLANVRKCTDRQNSPVTSPGSSPLAQRRKPQPDPLQIPHLSLPPVPPRLDLIQKGIVRSPCGSPTGSPKSSPCMVRKQDKPLPAPPPPLRDPPPPPPERPPPIPPDNRLSRHIHHVESVPSRDPPMPLEAWCPRDVFGTNQLVGCRLLGEGSPKPGITASSNVNGRHSRVGSDPVLMRKHRRHDLPLEGAKVFSNGHLGSEEYDVPPRLSPPPPVTTLLPSIKCTGPLANSLSEKTRDPVEEDDDEYKIPSSHPVSLNSQPSHCHNVKPPVRSCDNGHCMLNGTHGPSSEKKSNIPDLSIYLKGDVFDSASDPVPLPPARPPTRDNPKHGSSLNRTPSDYDLLIPPLGEDAFDALPPSLPPPPPPARHSLIEHSKPPGSSSRPSSGQDLFLLPSDPFVDLASGQVPLPPARRLPGENVKTNRTSQDYDQLPSCSDGSQAPARPPKPRPRRTAPEIHHRKPHGPEAALENVDAKIAKLMGEGYAFEEVKRALEIAQNNVEVARSILREFAFPPPVSPRLNL

Source: paper PMC6586535 (Leukemia & lymphoma, 2018)
